Series [1] deals with the molecule itself. Description: crystal structure; mTAZ (25-57) with mTEAD4 (210-427), co-expressed and co-purified; hanging drops, 6% PEG 10000, 0.05 M magnesium acetate, 0.1 M tri-sodium citrate pH 5.2, 20 °C; 2.9 Å; 4 TAZ and 4 TEAD in the asymmetric unit, two binding modes (1:1 and 2:2).
For series [2], the target named is T1, mTEAD4 (residues 210-427) Cys360Ser (mouse, UniProt Q62296 210-427, Cys360 replaced with serine).
T1 construct: TEAD4, mouse, residues 210-427, surface-exposed Cys360 replaced with serine; also called TEAD Cys360 to serine; source: E. coli BL21 (DE3), co-expressed with mTAZ (25-57) Asn33Cys, purified as a complex as the wild type
T1 sequence (Q62296 210-427 C360S): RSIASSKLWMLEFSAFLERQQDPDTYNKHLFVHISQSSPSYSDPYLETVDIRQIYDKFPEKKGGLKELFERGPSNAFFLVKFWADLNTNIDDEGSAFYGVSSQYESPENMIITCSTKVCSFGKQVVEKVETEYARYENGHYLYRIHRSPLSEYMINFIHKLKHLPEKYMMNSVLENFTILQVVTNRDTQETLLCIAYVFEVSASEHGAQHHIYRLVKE
Description: SEC; analytical gel filtration, Superdex 75 10/300 GL; control, cross-linked, and cross-linking reversed with 25 mM DTT for 1 hour at 25 °C. As to conditions: both partners purified.

Series [3] concerns the molecule itself. Description: cross-linking + SEC-MALS; specific disulfide cross-linking of TAZ Asn33Cys with 1.5 mM CuCl2 and 5 mM phenanthroline, 1 hour at 25 °C, stopped with 50 mM EDTA; Superdex 75 5/150 GL, 20 mM Tris pH 8, 150 mM sodium chloride.

Changes are numbered by the printed parent chain.

B1: mTAZ (residues 25-57) (domain or fragment, mouse, UniProt Q9EPK5 25-57, looked up)
chain: DTDLEALFNSVMNPKPSSWRKKILPESFFKEPD
notes: TAZ (WWTR1), mouse, residues 25-57 (helix α1, 13-residue loop, helix α2); Cloned with mTEAD4 in a modified pETDuet-1 vector; also called mouse TAZ; not shown: His6, N-terminal, cleaved
Take B1: the binding result in series [1] is “binds”.

B2: mTAZ (residues 25-57) Asn33Cys (domain or fragment, mouse, UniProt Q9EPK5 25-57, looked up)
chain: B1 chain with N9C
notes: TAZ (WWTR1), mouse, residues 25-57, Asn33 replaced with cysteine for disulfide cross-linking; In the cross-linked sample Cys33 of two copies is joined by a disulfide (copper phenanthroline); in the control and DTT samples it is not; also called TAZ Asn33Cys; source: E. coli BL21 (DE3), co-expressed with mTEAD4 (210-427) Cys360Ser, purified as a complex as the wild type; not shown: His6, …
Regarding B2, the results for the “stoichiometry N” value in series [2] and in series [3] were 1 and 2, respectively.

The values are drawn from PMC5435683, “Crystal structure of TAZ-TEAD complex reveals a distinct interaction mode from that of YAP-TEAD complex” (Scientific Reports, 2017).
